Experimental data: US20230312743A1 (MIROBIO, published 2023)
Numbering of substitutions follows the chain as printed. Numbers in names are those of the source.

T1: human FcγR2A 131R allotype (recombinant, extracellular domain only) (human, UniProt P12318 34-217)
T1 construct: extracellular domain; 131R allotype; Position 131 is the customary mature-protein numbering; also called FcyR2A (131R)
T1 sequence (looked up): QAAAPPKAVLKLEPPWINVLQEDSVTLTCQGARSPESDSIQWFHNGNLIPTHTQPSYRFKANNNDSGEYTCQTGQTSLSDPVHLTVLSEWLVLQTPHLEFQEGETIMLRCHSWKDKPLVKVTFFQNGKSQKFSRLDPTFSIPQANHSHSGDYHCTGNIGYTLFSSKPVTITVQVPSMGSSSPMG

T2: human FcγR2A 131H allotype (recombinant, extracellular domain only) (human, UniProt P12318 34-217)
T2 construct: extracellular domain; 131H allotype; Position 131 is the customary mature-protein numbering; also called FcyR2A (131H)
T2 sequence (looked up): T1 sequence (looked up) with R134H

T3: human FcγR2B (recombinant, extracellular domain only) (human, UniProt P31994 43-217)
T3 construct: extracellular domain; also called FcyR2B; FcgR2B
T3 sequence (looked up): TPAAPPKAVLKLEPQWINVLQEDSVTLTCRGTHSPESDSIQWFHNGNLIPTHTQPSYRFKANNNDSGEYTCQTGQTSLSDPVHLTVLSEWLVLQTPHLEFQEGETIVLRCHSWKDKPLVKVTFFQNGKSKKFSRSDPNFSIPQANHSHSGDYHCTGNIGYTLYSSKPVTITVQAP

B1: humCL19v1 hIgG1 L235N (antibody)
VH: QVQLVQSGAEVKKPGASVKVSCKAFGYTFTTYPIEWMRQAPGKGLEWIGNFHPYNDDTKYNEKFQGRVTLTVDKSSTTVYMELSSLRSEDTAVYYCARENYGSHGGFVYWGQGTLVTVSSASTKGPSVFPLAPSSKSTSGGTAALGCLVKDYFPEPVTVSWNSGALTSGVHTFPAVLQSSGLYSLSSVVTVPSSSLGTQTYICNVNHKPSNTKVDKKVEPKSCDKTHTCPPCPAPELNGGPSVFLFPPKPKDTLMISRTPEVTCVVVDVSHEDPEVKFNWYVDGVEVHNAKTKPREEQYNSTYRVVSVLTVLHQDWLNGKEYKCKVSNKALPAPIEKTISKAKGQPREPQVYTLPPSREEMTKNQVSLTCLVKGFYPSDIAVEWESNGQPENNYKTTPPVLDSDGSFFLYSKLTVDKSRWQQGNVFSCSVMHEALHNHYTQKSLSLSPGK
VL: ENQLTQSPSSLSASVGDRVTITCRASSSVISSYLHWYQQKPGKAPKLLIYSTSNLASGVPSRFSGSGSGTDYTLTISSLQPEDFATYYCQQYNSYPLTFGGGTKLEIKRTVAAPSVFIFPPSDEQLKSGTASVVCLLNNFYPREAKVQWKVDNALQSGNSQESVTEQDSKDSTYSLSSTLTLSKADYEKHKVYACEVTHQGLSSPVTKSFNRGEC
B2: humCL19v1 hIgG1 S239V (antibody)
VH: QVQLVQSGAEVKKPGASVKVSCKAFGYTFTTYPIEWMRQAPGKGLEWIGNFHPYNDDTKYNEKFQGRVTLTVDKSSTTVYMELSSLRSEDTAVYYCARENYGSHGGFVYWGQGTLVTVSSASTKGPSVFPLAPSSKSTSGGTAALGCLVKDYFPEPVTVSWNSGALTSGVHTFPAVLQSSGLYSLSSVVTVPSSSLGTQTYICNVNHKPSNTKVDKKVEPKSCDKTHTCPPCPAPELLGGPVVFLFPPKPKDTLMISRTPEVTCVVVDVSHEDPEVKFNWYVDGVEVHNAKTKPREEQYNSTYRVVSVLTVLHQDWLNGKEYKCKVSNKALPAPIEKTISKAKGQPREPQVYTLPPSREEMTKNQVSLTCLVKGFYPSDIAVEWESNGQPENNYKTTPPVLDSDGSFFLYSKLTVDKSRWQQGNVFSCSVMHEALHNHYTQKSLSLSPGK
VL: B1 VL
B3: humCL19v1 hIgG1 S239I (antibody)
VH: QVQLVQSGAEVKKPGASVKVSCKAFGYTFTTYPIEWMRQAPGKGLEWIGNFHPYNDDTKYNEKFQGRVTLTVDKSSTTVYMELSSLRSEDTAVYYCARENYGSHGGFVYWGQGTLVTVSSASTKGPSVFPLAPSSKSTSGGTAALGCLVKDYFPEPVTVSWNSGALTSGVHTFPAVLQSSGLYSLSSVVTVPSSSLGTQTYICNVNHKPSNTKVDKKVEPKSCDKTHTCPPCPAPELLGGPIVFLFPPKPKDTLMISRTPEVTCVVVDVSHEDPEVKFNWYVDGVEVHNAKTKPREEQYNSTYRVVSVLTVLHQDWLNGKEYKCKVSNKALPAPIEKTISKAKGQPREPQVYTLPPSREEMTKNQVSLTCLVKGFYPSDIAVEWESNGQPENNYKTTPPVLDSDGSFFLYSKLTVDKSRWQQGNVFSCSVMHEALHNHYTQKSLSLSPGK
VL: B1 VL
B4: humCL19v1 hIgG1 L235H (antibody)
VH: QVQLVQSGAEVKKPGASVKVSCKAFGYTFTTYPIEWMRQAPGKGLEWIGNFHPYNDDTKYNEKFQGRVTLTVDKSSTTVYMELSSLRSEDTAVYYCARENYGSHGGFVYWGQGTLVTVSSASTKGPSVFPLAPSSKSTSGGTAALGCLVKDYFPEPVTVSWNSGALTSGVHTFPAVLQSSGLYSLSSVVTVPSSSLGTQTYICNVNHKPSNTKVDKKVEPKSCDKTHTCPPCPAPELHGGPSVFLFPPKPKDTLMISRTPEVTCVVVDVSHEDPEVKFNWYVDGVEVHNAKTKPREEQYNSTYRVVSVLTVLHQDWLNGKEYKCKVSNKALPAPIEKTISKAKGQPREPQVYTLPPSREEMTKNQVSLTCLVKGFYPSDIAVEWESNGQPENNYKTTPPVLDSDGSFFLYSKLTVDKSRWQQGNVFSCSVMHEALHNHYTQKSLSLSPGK
VL: B1 VL
B5: humCL19v1 P238D (antibody, human IgG1, kappa)
heavy: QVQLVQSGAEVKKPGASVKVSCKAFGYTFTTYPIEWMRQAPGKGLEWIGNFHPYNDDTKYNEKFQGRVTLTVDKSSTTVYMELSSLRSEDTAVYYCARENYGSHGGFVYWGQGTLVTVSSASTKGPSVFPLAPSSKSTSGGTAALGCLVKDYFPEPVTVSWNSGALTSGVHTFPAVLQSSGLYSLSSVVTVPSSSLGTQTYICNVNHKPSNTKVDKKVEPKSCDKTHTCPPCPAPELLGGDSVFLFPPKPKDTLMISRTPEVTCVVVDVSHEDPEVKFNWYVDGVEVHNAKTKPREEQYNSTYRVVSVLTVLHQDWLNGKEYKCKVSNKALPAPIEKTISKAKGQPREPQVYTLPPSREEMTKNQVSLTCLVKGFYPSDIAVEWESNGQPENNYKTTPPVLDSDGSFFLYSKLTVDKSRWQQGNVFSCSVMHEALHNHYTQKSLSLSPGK
light: B1 VL
notes: That makes them humCL19v1 P238D; also called hIgG1 P238D; P238D mutated humCL19v1
B6: humCL19v1 hIgG1 V266M (antibody)
VH: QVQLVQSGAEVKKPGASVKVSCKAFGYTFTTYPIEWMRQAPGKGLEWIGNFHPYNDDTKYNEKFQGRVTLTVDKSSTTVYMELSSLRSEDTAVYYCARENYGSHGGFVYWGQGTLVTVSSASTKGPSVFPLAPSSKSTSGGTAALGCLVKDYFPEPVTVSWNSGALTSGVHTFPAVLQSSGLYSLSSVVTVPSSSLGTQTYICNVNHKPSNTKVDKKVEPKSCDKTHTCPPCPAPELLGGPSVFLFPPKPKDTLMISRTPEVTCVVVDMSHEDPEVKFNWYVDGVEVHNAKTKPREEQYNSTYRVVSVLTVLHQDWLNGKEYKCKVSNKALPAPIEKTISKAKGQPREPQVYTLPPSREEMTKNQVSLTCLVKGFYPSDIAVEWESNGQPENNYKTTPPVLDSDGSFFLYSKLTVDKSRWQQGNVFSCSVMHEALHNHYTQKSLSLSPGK
VL: B1 VL
B7: humCL19v1 hIgG1 Y300N (antibody)
VH: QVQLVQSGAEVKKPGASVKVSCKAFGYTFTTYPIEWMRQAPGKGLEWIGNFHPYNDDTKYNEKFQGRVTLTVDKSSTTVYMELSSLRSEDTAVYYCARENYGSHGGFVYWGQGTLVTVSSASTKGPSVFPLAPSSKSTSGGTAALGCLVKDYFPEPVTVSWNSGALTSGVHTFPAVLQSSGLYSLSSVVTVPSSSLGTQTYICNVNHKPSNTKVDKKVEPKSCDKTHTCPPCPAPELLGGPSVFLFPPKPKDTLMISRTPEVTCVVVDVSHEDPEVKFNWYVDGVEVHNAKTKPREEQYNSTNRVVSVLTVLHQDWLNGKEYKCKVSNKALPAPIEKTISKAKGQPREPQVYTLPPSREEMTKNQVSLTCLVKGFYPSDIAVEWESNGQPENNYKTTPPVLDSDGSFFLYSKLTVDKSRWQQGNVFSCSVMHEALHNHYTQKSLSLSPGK
VL: B1 VL

What follows are binders tested against T1, human FcγR2A 131R allotype … (assay: SPR (Biacore 8K), 37 C, steady state; antibody captured on immobilised human PD-1 ECD, FcR ECD as analyte).
Procedure: (§1) The interactions were assessed by surface plasmon resonance using a Biacore 8 K with the recombinantly expressed FcRs (extracellular domains only) as analyte. Briefly, recombinant human PD-1 extracellular domain was covalently immobilized to both flow cells of all channels of a CM5 Series S sensor chip using the GE Healthcare Amine coupling kit. […] Steady state affinity analysis was then performed by injecting varying concentrations of FcR and measuring equilibrium binding. Double referencing was used (subtracting the signal in the reference Fc1 and also subtracting the signal from a blank zero concentration injection). KD values were calculated from the Langmuir curves (plotting equilibrium binding against analyte concentration to determine the concentration required for half maximal binding).

Kd | Binder
12.3 nM | B1
1.62 nM | B2
1.65 nM | B3
3.67 nM | B4
17.5 nM | B5
0.58 nM | B6
2.22 nM | B7

Each binder was assayed against T2, human FcγR2A 131H allotype … in the same assay as above.
Procedure: as §1

Kd | Binder
13.5 nM | B1
3.13 nM | B2
3.38 nM | B3
3.96 nM | B4
90.3 nM | B5
6.28 nM | B6
2.83 nM | B7

What follows are binders tested against T3, human FcγR2B (recombinant, …) in the same assay as above.
Procedure: as §1

Kd | Binder
59 nM | B1
3.6 nM | B2
3.99 nM | B3
13.6 nM | B4
2.79 nM | B5
1.54 nM | B6
6.32 nM | B7
